± gives the standard error.
Assay: background-corrected fluorescence of 3'-dye-labeled ssDNA relative to brightest sequence (3'-GCGCG) (fraction); higher = brighter dye fluorescence (less quenching)
Details: dye: Cy3 (3' terminal)
How it was run: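 Single-stranded DNA was built on glass slides by light-directed phosphoramidite synthesis, ending in a 3' Cy3 or Cy5 dye beside each of 1024 permuted pentamers. Arrays were washed in acetonitrile for 2 h at r.t., then scanned at 532 or 635 nm before and after overnight ethylenediamine/ethanol deprotection. Each value averages 10 features per array and at least 3 syntheses. Fluorescence, corrected by subtracting unlabeled-oligo background, is scaled to the brightest sequence.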

Row | Sequence | background-corrected fluorescence
1 | TTTTTTGAGCATCAGCATGATTTTTTTTTTTTTTTCTGTC | 0.443 ± 0.03
2 | TTTTTTGAGCATCAGCATGCTTTTTTTTTTTTTTTCTGTA [ATGTC] | 0.571 ± 0.019
3 | TTTTTTGAGCATCATCAGCATTTTTTTTTTTTTTTCTGGT [TGGTC] | 0.653 ± 0.018
4 | TTTTTTGAGCATCATCATCATTTTTTTTTTTTTTTCTGGG [GGGTC] | 0.668 ± 0.018
5 | TTTTTTGAGCATCATCATGATTTTTTTTTTTTTTTCTGGC [CGGTC] | 0.533 ± 0.0091
6 | TTTTTTGAGCATCATCATGCTTTTTTTTTTTTTTTCTGGA [AGGTC] | 0.69 ± 0.023
7 | TTTTTTGAGCATCATGAGCATTTTTTTTTTTTTTTCTGCT [TCGTC] | 0.492 ± 0.021
8 | TTTTTTGAGCATCATGATCATTTTTTTTTTTTTTTCTGCG [GCGTC] | 0.589 ± 0.024
9 | TTTTTTGAGCATCATGATGATTTTTTTTTTTTTTTCTGCC [CCGTC] | 0.402 ± 0.027
10 | TTTTTTGAGCATCATGATGCTTTTTTTTTTTTTTTCTGCA [ACGTC] | 0.557 ± 0.03
11 | TTTTTTGAGCATCATGCGCATTTTTTTTTTTTTTTCTGAT [TAGTC] | 0.59 ± 0.02
12 | TTTTTTGAGCATCATGCTCATTTTTTTTTTTTTTTCTGAG [GAGTC] | 0.621 ± 0.024
13 | TTTTTTGAGCATCATGCTGATTTTTTTTTTTTTTTCTGAC [CAGTC] | 0.465 ± 0.024
14 | TTTTTTGAGCATCATGCTGCTTTTTTTTTTTTTTTCTGAA [AAGTC] | 0.575 ± 0.026
15 | TTTTTTGAGCATGAGCAGCATTTTTTTTTTTTTTTCTCTT | 0.49 ± 0.0076
16 | TTTTTTGAGCATGAGCATCATTTTTTTTTTTTTTTCTCTG [GTCTC] | 0.48 ± 0.018
17 | TTTTTTGAGCATGAGCATGATTTTTTTTTTTTTTTCTCTC | 0.357 ± 0.036
18 | TTTTTTGAGCATGAGCATGCTTTTTTTTTTTTTTTCTCTA [ATCTC] | 0.483 ± 0.0051
19 | TTTTTTGAGCATGATCAGCATTTTTTTTTTTTTTTCTCGT [TGCTC] | 0.567 ± 0.015
20 | TTTTTTGAGCATGATCATCATTTTTTTTTTTTTTTCTCGG [GGCTC] | 0.641 ± 0.034
21 | TTTTTTGAGCATGATCATGATTTTTTTTTTTTTTTCTCGC [CGCTC] | 0.548 ± 0.032
22 | TTTTTTGAGCATGATCATGCTTTTTTTTTTTTTTTCTCGA [AGCTC] | 0.599 ± 0.011
23 | TTTTTTGAGCATGATGAGCATTTTTTTTTTTTTTTCTCCT [TCCTC] | 0.41 ± 0.018

Row | Sequence | background-corrected fluorescence
24 | TTTTTTGAGCATGATGATCATTTTTTTTTTTTTTTCTCCG [GCCTC] | 0.531 ± 0.02
25 | TTTTTTGAGCATGATGATGATTTTTTTTTTTTTTTCTCCC [CCCTC] | 0.377 ± 0.029
26 | TTTTTTGAGCATGATGATGCTTTTTTTTTTTTTTTCTCCA [ACCTC] | 0.441 ± 0.019
27 | TTTTTTGAGCATGATGCGCATTTTTTTTTTTTTTTCTCAT [TACTC] | 0.513 ± 0.018
28 | TTTTTTGAGCATGATGCTCATTTTTTTTTTTTTTTCTCAG [GACTC] | 0.517 ± 0.024
29 | TTTTTTGAGCATGATGCTGATTTTTTTTTTTTTTTCTCAC [CACTC] | 0.391 ± 0.046
30 | TTTTTTGAGCATGATGCTGCTTTTTTTTTTTTTTTCTCAA [AACTC] | 0.52 ± 0.042
31 | TTTTTTGAGCATGCGCAGCATTTTTTTTTTTTTTTCTATT [TTATC] | 0.527 ± 0.047
32 | TTTTTTGAGCATGCGCATCATTTTTTTTTTTTTTTCTATG [GTATC] | 0.564 ± 0.015
33 | TTTTTTGAGCATGCGCATGATTTTTTTTTTTTTTTCTATC | 0.373 ± 0.025
34 | TTTTTTGAGCATGCGCATGCTTTTTTTTTTTTTTTCTATA [ATATC] | 0.527 ± 0.018
35 | TTTTTTGAGCATGCTCAGCATTTTTTTTTTTTTTTCTAGT [TGATC] | 0.612 ± 0.019
36 | TTTTTTGAGCATGCTCATCATTTTTTTTTTTTTTTCTAGG [GGATC] | 0.647 ± 0.019
37 | TTTTTTGAGCATGCTCATGATTTTTTTTTTTTTTTCTAGC [CGATC] | 0.508 ± 0.033
38 | TTTTTTGAGCATGCTCATGCTTTTTTTTTTTTTTTCTAGA [AGATC] | 0.608 ± 0.035
39 | TTTTTTGAGCATGCTGAGCATTTTTTTTTTTTTTTCTACT [TCATC] | 0.454 ± 0.0046
40 | TTTTTTGAGCATGCTGATCATTTTTTTTTTTTTTTCTACG [GCATC] | 0.565 ± 0.027
41 | TTTTTTGAGCATGCTGATGATTTTTTTTTTTTTTTCTACC [CCATC] | 0.375 ± 0.032
42 | TTTTTTGAGCATGCTGATGCTTTTTTTTTTTTTTTCTACA [ACATC] | 0.498 ± 0.043
43 | TTTTTTGAGCATGCTGCGCATTTTTTTTTTTTTTTCTAAT [TAATC] | 0.542 ± 0.015
44 | TTTTTTGAGCATGCTGCTCATTTTTTTTTTTTTTTCTAAG [GAATC] | 0.542 ± 0.044
45 | TTTTTTGAGCATGCTGCTGATTTTTTTTTTTTTTTCTAAC [CAATC] | 0.407 ± 0.026
46 | TTTTTTGAGCATGCTGCTGCTTTTTTTTTTTTTTTCTAAA [AAATC] | 0.569 ± 0.008

Row | Sequence | background-corrected fluorescence
47 | TTTTTTGATCAGCAGCAGCATTTTTTTTTTTTTTTCGTTT [TTTGC] | 0.528 ± 0.017
48 | TTTTTTGATCAGCAGCATCATTTTTTTTTTTTTTTCGTTG [GTTGC] | 0.533 ± 0.023
49 | TTTTTTGATCAGCAGCATGATTTTTTTTTTTTTTTCGTTC [CTTGC] | 0.417 ± 0.036
50 | TTTTTTGATCAGCAGCATGCTTTTTTTTTTTTTTTCGTTA [ATTGC] | 0.561 ± 0.012
51 | TTTTTTGATCAGCATCAGCATTTTTTTTTTTTTTTCGTGT [TGTGC] | 0.571 ± 0.022
52 | TTTTTTGATCAGCATCATCATTTTTTTTTTTTTTTCGTGG [GGTGC] | 0.622 ± 0.021
53 | TTTTTTGATCAGCATCATGATTTTTTTTTTTTTTTCGTGC | 0.504 ± 0.033
54 | TTTTTTGATCAGCATCATGCTTTTTTTTTTTTTTTCGTGA [AGTGC] | 0.634 ± 0.016
55 | TTTTTTGATCAGCATGAGCATTTTTTTTTTTTTTTCGTCT [TCTGC] | 0.485 ± 0.02
56 | TTTTTTGATCAGCATGATCATTTTTTTTTTTTTTTCGTCG [GCTGC] | 0.609 ± 0.03
57 | TTTTTTGATCAGCATGATGATTTTTTTTTTTTTTTCGTCC [CCTGC] | 0.4 ± 0.0041
58 | TTTTTTGATCAGCATGATGCTTTTTTTTTTTTTTTCGTCA [ACTGC] | 0.547 ± 0.03
59 | TTTTTTGATCAGCATGCGCATTTTTTTTTTTTTTTCGTAT [TATGC] | 0.555 ± 0.018
60 | TTTTTTGATCAGCATGCTCATTTTTTTTTTTTTTTCGTAG [GATGC] | 0.615 ± 0.024
61 | TTTTTTGATCAGCATGCTGATTTTTTTTTTTTTTTCGTAC | 0.49 ± 0.01
62 | TTTTTTGATCAGCATGCTGCTTTTTTTTTTTTTTTCGTAA [AATGC] | 0.553 ± 0.045
63 | TTTTTTGATCATCAGCAGCATTTTTTTTTTTTTTTCGGTT [TTGGC] | 0.545 ± 0.0074
64 | TTTTTTGATCATCAGCATCATTTTTTTTTTTTTTTCGGTG [GTGGC] | 0.574 ± 0.02
65 | TTTTTTGATCATCAGCATGATTTTTTTTTTTTTTTCGGTC [CTGGC] | 0.506 ± 0.035
66 | TTTTTTGATCATCAGCATGCTTTTTTTTTTTTTTTCGGTA [ATGGC] | 0.589 ± 0.071
67 | TTTTTTGATCATCATCAGCATTTTTTTTTTTTTTTCGGGT [TGGGC] | 0.7 ± 0.013
68 | TTTTTTGATCATCATCATCATTTTTTTTTTTTTTTCGGGG [GGGGC] | 0.673 ± 0.024
